This is an account of results in patent US20210380703A1 (RIGEL PHARMACEUTICALS, published 2021).

Positions count from the first letter of the chain named.

B1: 366_D04 (antibody, V domains shown)
VH: EVQLLESGGGLVQPGGSLRLSCAASGFTFSSYSMNWVRQAPGKGLEWVSGINYNGGYTSYADSVKGRFTISRDNSKNTLYLQMNSLRAEDTAVYYCARSANWHDTALDYWGQGTLVTVSS
VL: DIQMTQSPSSLSASVGDRVTITCRASQSISSYVNWYQQKPGKAPKLLIYATTSRASGVPSRFSGSGSGTDFTLTISSLQPEDFATYYCQQSYETPLTFGGGTKVEIK
notes: VH/VL only
B2: 367_E07 (antibody, V domains shown)
VH: B1 VH with S31D, G50S, T58K, S59G, S99G, N101T, A106H
VL: B1 VL with S30L, L47V, T51A, T94N
notes: VH/VL only
B3: 368_C11 (antibody, V domains shown)
VH: B1 VH with S31D, G50S, G55S, T58K, S99G, N101T, A106H
VL: B1 VL with S30I, V33L, T51A, E93D, T94N
notes: VH/VL only
B4: 366_H08 (antibody, V domains shown)
VH: B1 VH with S31D, S33G, S49A, G50S, G55S, A106H
VL: B1 VL with S30L, T51A, A55H, E93N, T94N
notes: VH/VL only
B5: 366_G09 (antibody, V domains shown)
VH: B1 VH with S30D, S31D, S49A, G50S, G55S, S59G, S99G, N101T, A106H
VL: B1 VL with S30L, L47V, T51A, E93D, T94L
notes: VH/VL only
B6: 367_A02 (antibody, V domains shown)
VH: B1 VH with S30D, S33G, G50S, G55S, T58K, S59G, S99G, N101T, A106H
VL: B1 VL with S30I, V33L, T51V, E93D
notes: VH/VL only
B7: 367_D05 (antibody, V domains shown)
VH: B1 VH with S31D, G50S, T58K, S99G, N101T, A106H
VL: B1 VL with S30I, L47V, T51A, R54L, E93D, T94S
notes: VH/VL only
B8: 368_F06 (antibody, V domains shown)
VH: B1 VH with S30D, S31D, N35H, S49A, G50N, G55S, S59G, S99G, N101T, A106H
VL: B1 VL with S30L, V33L, L47V, T94N
notes: VH/VL only
B9: 367_B03 (antibody, V domains shown)
VH: B1 VH with S33G, S49A, T58K
VL: B1 VL with S30L, S31T, V33L, T51A, R54L, E93N, T94L
notes: VH/VL only
B10: 366_H06 (antibody, V domains shown)
VH: B1 VH with S33G, G50S, S59G
VL: B1 VL with S30L, V33L, E93D
notes: VH/VL only
B11: 366_F05 (antibody, V domains shown)
VH: B1 VH with S49A, G50N, G55S, T58K, A106H
VL: B1 VL with S30L, S31T, V33L, T51A, Y92D, E93N
notes: VH/VL only
B12: 366_D08 (antibody, V domains shown)
VH: B1 VH with S33G, N35H, G50N, T58K, S99G, N101T, A106H
VL: B1 VL with S30L, L47V, T51A, R54L, T94N
notes: VH/VL only
B13: 367_B06 (antibody, V domains shown)
VH: B1 VH with S49A, G50N, S59G, S99G, N101T, A106H
VL: B1 VL with S30I, L47V, T51A, R54L, A55H, E93N, T94S
notes: VH/VL only
B14: 367_H10 (antibody, V domains shown)
VH: B1 VH with S33G, S49A, G50S, S59G, S99G, N101T, A106H
VL: B1 VL with S30L, L47V, T51A, T94L
notes: VH/VL only
B15: 367_E12 (antibody, V domains shown)
VH: B1 VH with S33G, N35H, S49A, G50S, S99G, N101T, A106H
VL: B1 VL with S30L, S31T, T51A, T52S, R54L, A55Q, E93N, T94S
notes: VH/VL only
B16: 367_H05 (antibody, V domains shown)
VH: B1 VH with S33G, N35H, S49A, G50S, G55S, T58K, S99G, N101T, A106H
VL: not shown
notes: VH/VL only
B17: 367_D09 (antibody, V domains shown)
VH: B1 VH with S30D, S33G, S49A, G50S, T58K, S99G, N101T, A106H
VL: B1 VL with S30L, S31T, V33L, T51A, R54L, E93D, T94N
notes: VH/VL only
B18: 368_B02 (antibody, V domains shown)
VH: B1 VH with S33G, G55S, T58K, S99G, N101T, A106H
VL: not shown
notes: VH/VL only
B19: 367_A05 (antibody, V domains shown)
VH: B1 VH with S31D, S33G, G50S, T58K, S59G
VL: B1 VL with S30L, V33L, L47V, T51V, E93D, T94S
notes: VH/VL only
B20: 366_F04 (antibody, V domains shown)
VH: B1 VH with S31D, S33G
VL: B1 VL with S30L, L47V, A55H, T94S
notes: VH/VL only
B21: 366_F08 (antibody, V domains shown)
VH: B1 VH with S33G, G50S, S99G, N101T, A106H
VL: not shown
notes: VH/VL only
B22: 366_G04 (antibody, V domains shown)
VH: B1 VH with G55S
VL: B1 VL with S30I, S31T, V33L, T51A, Y92D, E93D
notes: VH/VL only
B23: 366_F07 (antibody, V domains shown)
VH: B1 VH with S31D, S49A, G55S, A106H
VL: B1 VL with S30I, S31T, V33L, T51A
notes: VH/VL only
B24: 367_B07 (antibody, V domains shown)
VH: B1 VH with S31D, S49A, G55S, S59G, A106H
VL: B1 VL with S30I, T51A, R54L, E93N, T94L
notes: VH/VL only
B25: 368_D12 (antibody, V domains shown)
VH: B1 VH with S33G, G50S, S99G, N101T, A106H
VL: B1 VL with S30L, L47V, T51A, E93N, T94N
notes: VH/VL only
B26: 367_A04 (antibody, V domains shown)
VH: B1 VH with G50N, G55S, T58K
VL: B1 VL with S30I, S31T, V33L, T51A, Y92D, E93D, T94S
notes: VH/VL only
B27: 367_C08 (antibody, V domains shown)
VH: B1 VH with S30D, N35H, S49A, S99G, N101T, A106H
VL: B1 VL with S30L, S31T, V33L, T51A, R54L, Y92D, E93S, T94N
notes: VH/VL only
B28: 367_F09 (antibody, V domains shown)
VH: B1 VH with S30D, N35H, S49A, S99G, N101T, A106H
VL: B1 VL with S30L, S31T, V33L, T51A, R54L, Y92D, E93S, T94N
notes: VH/VL only
B29: 367_B08 (antibody, V domains shown)
VH: B1 VH with S31D, S33G, T58K, S59G
VL: B1 VL with S30L, S31T, V33L, L47V, T51A, E93D, T94N
notes: VH/VL only
B30: 368_D02 (antibody, V domains shown)
VH: B1 VH with S30D, S31D, S33G, G50N, S59G, S99G, N101T, A106H
VL: B1 VL with S31T, V33L, L47V, T51A, A55H, E93D
notes: VH/VL only
Further: test concentration or dose not given here.

The first experiment deals with T1, Human ACVR2A (human, UniProt P27037 20-135, limits assumed).
T1 construct: also called activin receptor, type II A
T1 sequence (P27037 20-135 limits assumed): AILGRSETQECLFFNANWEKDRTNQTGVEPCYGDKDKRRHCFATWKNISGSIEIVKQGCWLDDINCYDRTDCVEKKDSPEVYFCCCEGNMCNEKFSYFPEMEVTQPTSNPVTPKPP
Put plainly: ELISA. The method in brief:
(§1)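 Monoclonal antibodies were first applied to human or mouse ACVR2A, alongside biotinylated goat anti-human kappa light chain (positive control) and human Fc (negative control); binding was then determined by ELISA.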
For the molecule B1, the optical density worked out at 2.08 OD.

On to B2, for which the optical density was 1.94 OD.

Consider B3, for which the optical density came to 2.03 OD.

As to B4, the optical density was found to be 2.59 OD.

On to B5, for which the optical density was 1.85 OD.

With B6, the optical density was determined as 2.23 OD.

With B7, the optical density stood at 1.26 OD.

In turn, B8 yielded an optical density of 1.6 OD.

Molecule B9 returned an optical density of 2.48 OD.

Molecule B10 returned an optical density of 2.29 OD.

Take B11: the optical density worked out at 2.19 OD.

B12 displayed an optical density of 2.17 OD.

The molecule B13 yielded an optical density of 1.82 OD.

As for B14, the optical density amounted to 2.58 OD.

The molecule B15 gave an optical density of 2.69 OD.

Consider B16, for which the optical density came to 2.44 OD.

On to B17, for which the optical density came out at 2.15 OD.

Molecule B18 gave an optical density of 2.08 OD.

As for B19, the optical density stood at 2.22 OD.

B20: the optical density was determined as 1.73 OD.

Take B21: the optical density came to 1.86 OD.

The molecule B22 returned an optical density of 1.85 OD.

Regarding B23, the optical density is 2.39 OD.

For the molecule B24, the optical density was 1.42 OD.

B25 registered an optical density of 2.25 OD.

Molecule B26 returned an optical density of 2.14 OD.

Molecule B27 displayed an optical density of 1.12 OD.

B28 had an optical density of 1.79 OD.

Molecule B29 displayed an optical density of 2.13 OD.

B30 showed an optical density of 1.93 OD.

For the next experiment, the target named is Mouse ACVR2A (mouse, UniProt P27038 20-135, limits assumed). Put plainly: ELISA. In outline: as §1
Sequence of Mouse ACVR2A (P27038 20-135 limits assumed): as the sequence (P27037 20-135 limits assumed) above, with K20R, V73I counted along it
For the molecule B1, the optical density worked out at 2.12 OD.

B2 displayed an optical density of 2.06 OD.

On to B3, for which the optical density is 2.21 OD.

B4 displayed an optical density of 2.77 OD.

B5 returned an optical density of 2.04 OD.

For the molecule B6, the optical density stood at 2.42 OD.

Turning to B7, the optical density came to 1.37 OD.

The molecule B8 returned an optical density of 1.68 OD.

Regarding B9, the optical density was 2.66 OD.

For the molecule B10, the optical density stood at 2.59 OD.

B11 had an optical density of 2.67 OD.

Molecule B12 yielded an optical density of 2.46 OD.

For the molecule B13, the optical density came out at 1.89 OD.

B14 returned an optical density of 2.35 OD.

B15 returned an optical density of 2.91 OD.

In turn, B16 had an optical density of 2.7 OD.

Turning to B17, the optical density was 2.04 OD.

The molecule B18 yielded an optical density of 2.24 OD.

Turning to B19, the optical density worked out at 2.38 OD.

Molecule B20 registered an optical density of 1.91 OD.

On to B21, for which the optical density amounted to 2 OD.

With B22, the optical density amounted to 2.18 OD.

B23 showed an optical density of 2.53 OD.

The molecule B24 came in with an optical density of 1.49 OD.

As for B25, the optical density was 2.28 OD.

Take B26: the optical density is 2.2 OD.

In turn, B27 showed an optical density of 1.22 OD.

Regarding B28, the optical density came to 1.82 OD.

B29: the optical density stood at 2.25 OD.

B30 came in with an optical density of 2.26 OD.

Another experiment concerns the target T2, Goat anti-Human Kappa.
T2 construct: Positive control; also called biotinylated goat anti-human kappa light chain
Put plainly: ELISA; positive control. The method in brief:
as §1
Molecule B1 had an optical density of 3.46 OD.

B2 had an optical density of 3.21 OD.

B3 displayed an optical density of 3.56 OD.

B4 displayed an optical density of 3.55 OD.

Molecule B5 showed an optical density of 3.44 OD.

In turn, B6 displayed an optical density of 3.58 OD.

The molecule B7 showed an optical density of 3.34 OD.

In the case of B8, the optical density was 3.31 OD.

B9: the optical density turned out to be 3.44 OD.

As to B10, the optical density stood at 3.39 OD.

For B11, the optical density turned out to be 3.25 OD.

As for B12, the optical density worked out at 3.65 OD.

For B13, the optical density turned out to be 3.02 OD.

B14 gave an optical density of 3.55 OD.

On to B15, for which the optical density was determined as 3.71 OD.

B16: the optical density stood at 3.59 OD.

The molecule B17 had an optical density of 3.37 OD.

For B18, the optical density was determined as 3.61 OD.

With B19, the optical density was 3.38 OD.

B20 displayed an optical density of 3.37 OD.

Molecule B21 yielded an optical density of 3.47 OD.

Regarding B22, the optical density came to 3.29 OD.

B23: the optical density amounted to 3.47 OD.

For the molecule B24, the optical density is 3.34 OD.

B25 had an optical density of 3.57 OD.

On to B26, for which the optical density came out at 3.3 OD.

Molecule B27 came in with an optical density of 3.05 OD.

Consider B28, for which the optical density was 3.46 OD.

Molecule B29 came in with an optical density of 3.03 OD.

In the case of B30, the optical density was 3.52 OD.
